{"source": "paper PMC8440931", "about": "“Physical and Functional Interaction of Mitochondrial Single-Stranded DNA-Binding Protein and the Catalytic Subunit of DNA Polymerase Gamma” (Frontiers in Genetics, 2021)", "molecules": {"B1": {"name": "catalytic subunit of mitochondrial DNA polymerase gamma (Pol γα) (enzyme, human, UniProt P54098 1-1239, looked up)", "chain": "MSRLLWRKVAGATVGPGPVPAPGRWVSSSVPASDPSDGQRRRQQQQQQQQQQQQQPQQPQVLSSEGGQLRHNPLDIQMLSRGLHEQIFGQGGEMPGEAAVRRSVEHLQKHGLWGQPAVPLPDVELRLPPLYGDNLDQHFRLLAQKQSLPYLEAANLLLQAQLPPKPPAWAWAEGWTRYGPEGEAVPVAIPEERALVFDVEVCLAEGTCPTLAVAISPSAWYSWCSQRLVEERYSWTSQLSPADLIPLEVPTGASSPTQRDWQEQLVVGHNVSFDRAHIREQYLIQGSRMRFLDTMSMHMAISGLSSFQRSLWIAAKQGKHKVQPPTKQGQKSQRKARRGPAISSWDWLDISSVNSLAEVHRLYVGGPPLEKEPRELFVKGTMKDIRENFQDLMQYCAQDVWATHEVFQQQLPLFLERCPHPVTLAGMLEMGVSYLPVNQNWERYLAEAQGTYEELQREMKKSLMDLANDACQLLSGERYKEDPWLWDLEWDLQEFKQKKAKKVKKEPATASKLPIEGAGAPGDPMDQEDLGPCSEEEEFQQDVMARACLQKLKGTTELLPKRPQHLPGHPGWYRKLCPRLDDPAWTPGPSLLSLQMRVTPKLMALTWDGFPLHYSERHGWGYLVPGRRDNLAKLPTGTTLESAGVVCPYRAIESLYRKHCLEQGKQQLMPQEAGLAEEFLLTDNSAIWQTVEELDYLEVEAEAKMENLRAAVPGQPLALTARGGPKDTQPSYHHGNGPYNDVDIPGCWFFKLPHKDGNSCNVGSPFAKDFLPKMEDGTLQAGPGGASGPRALEINKMISFWRNAHKRISSQMVVWLPRSALPRAVIRHPDYDEEGLYGAILPQVVTAGTITRRAVEPTWLTASNARPDRVGSELKAMVQAPPGYTLVGADVDSQELWIAAVLGDAHFAGMHGCTAFGWMTLQGRKSRGTDLHSKTATTVGISREHAKIFNYGRIYGAGQPFAERLLMQFNHRLTQQEAAEKAQQMYAATKGLRWYRLSDEGEWLVRELNLPVDRTEGGWISLQDLRKVQRETARKSQWKKWEVVAERAWKGGTESEMFNKLESIATSDIPRTPVLGCCISRALEPSAVQEEFMTSRVNWVVQSSAVDYLHLMLVAMKWLFEEFAIDGRFCISIHDEVRYLVREEDRYRAALALQITNLLTRCMFAYKLGLNDLPQSVAFFSAVDIDRCLRKEVTMDCKTPSNPTGMERRYGIPQGEALDIYQIIELTKGSLEKRSQPGP"}, "B2": {"name": "biotinylated mitochondrial single-stranded DNA-binding protein (BTN-mtSSB), wild type (natural protein, human, UniProt Q04837 17-148, looked up)", "chain": "ESETTTSLVLERSLNRVHLLGRVGQDPVLRQVEGKNPVTIFSLATNEMWRSGDSEVYQLGDVSQKTTWHRISVFRPGLRDVAYQYVKKGSRIYLEGKIDYGEYMDKNNVRRQATTIIADNIIFLSDQTKEKE", "modifications": "biotin (conjugated; site not stated)", "notes": "also called mtSSB4; wild-type mtSSB; source: purified recombinant protein; details in the Supplementary Materials"}, "B3": {"name": "biotinylated mtSSB variant lacking nine residues of loop 2.3 (Δ67-75), BTN-mtSSB_(l2.3) (natural protein, human, UniProt Q04837 17-148, looked up)", "chain": "ESETTTSLVLERSLNRVHLLGRVGQDPVLRQVEGKNPVTIFSLATNEMWRGDVSQKTTWHRISVFRPGLRDVAYQYVKKGSRIYLEGKIDYGEYMDKNNVRRQATTIIADNIIFLSDQTKEKE", "modifications": "biotin (conjugated; site not stated)", "notes": "also called loop 2.3-deficient mtSSB; source: purified recombinant protein; details in the Supplementary Materials"}}, "key": {"Pol γβ (Homo sapiens)": {"target": "Pol γβ (Homo sapiens) (UniProt Q9UHN1)", "sequence (Q9UHN1 2-485)": "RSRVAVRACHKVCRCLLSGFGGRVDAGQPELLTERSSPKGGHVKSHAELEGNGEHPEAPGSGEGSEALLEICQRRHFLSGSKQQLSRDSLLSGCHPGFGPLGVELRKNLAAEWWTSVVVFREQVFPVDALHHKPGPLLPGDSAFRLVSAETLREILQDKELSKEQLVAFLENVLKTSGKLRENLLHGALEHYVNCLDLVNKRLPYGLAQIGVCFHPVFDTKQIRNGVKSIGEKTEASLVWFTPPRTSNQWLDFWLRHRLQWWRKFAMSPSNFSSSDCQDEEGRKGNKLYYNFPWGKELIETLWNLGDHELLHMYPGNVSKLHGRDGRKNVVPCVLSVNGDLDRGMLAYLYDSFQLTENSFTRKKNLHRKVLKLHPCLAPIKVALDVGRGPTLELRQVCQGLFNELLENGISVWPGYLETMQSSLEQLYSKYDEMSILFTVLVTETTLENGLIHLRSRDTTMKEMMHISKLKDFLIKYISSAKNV", "conditions": "cited from earlier work"}, "[1]": {"target": "B3", "test": "cell-based or functional assay"}, "[2]": {"target": "B1", "test": "BLI; BTN-mtSSB or BTN-mtSSB_(l2.3) (600 nM) saturated on streptavidin sensors; Pol γα as analyte at increasing concentrations; Ac buffer: 50 mM Tris-HCl pH 8.0, 10 mM KCl, 4 mM MgCl2, 0.4 mg/ml BSA, 10 mM DTT; 30°C, 1,000 rpm; 1:1 interaction model", "conditions": "both partners purified"}, "mtSSB (wild type)": {"target": "T1, mtSSB (wild type) (UniProt Q04837 17-148)", "T1 sequence": "B2 chain", "test": "BLI; 4 mM Mg2+; equilibrium responses of mass transfer fit, non-1:1 binding; BLI: 50 mM Tris-HCl pH 8.0, 10 mM KCl, 4 mM MgCl2, 0.4 mg/ml BSA, 10 mM DTT, 30 C", "conditions": "protein: recombinant; chain copies: 4; label: 5'-biotin (immobilized on streptavidin sensor); single strand"}}}
{"molecule": "Pol γα (from UniProt P54098)", "values": [{"measurement": "Kd", "setting": "Pol γβ (Homo sapiens)", "value": 20, "unit": "nM"}]}
{"molecule": "B1", "values": [{"measurement": "inhibition of primer extension by Pol γα on primer-template (15/59) DNA (mtSSB displacement assay), mtSSB_(l2.3) at 1:1 (~10%) and three-fold molar ratio to DNA template", "setting": "[1]", "value": "~25", "unit": "%"}]}
{"molecule": "B2", "values": [{"measurement": "Kd", "setting": "[2]", "value": 48, "unit": "nM"}]}
{"molecule": "B3", "values": [{"measurement": "Kd", "setting": "[2]", "value": 26, "unit": "nM"}]}
{"molecule": "ATTATGAATTAATTTAATAATTTTTTTTTTTTTTTTTTTT (ssDNA, 5'-biotin)", "note": "[BTN-ssDNA 40-mer]", "values": [{"measurement": "Kd", "setting": "mtSSB (wild type)", "value": 2.3, "unit": "nM"}]}
